± gives the uncertainty stated by the source.

Sequences and labels used below:
B1: Nuclear receptor subfamily 1 group D member 2, residues 103 to 171; numbered along this chain, Q14995 (parent)
chain: CKVCGDVASGFHYGVHACEGCKGFFRRSIQQNIQYKKCLKNENCSIMRMNRNRCQQCRFKKCLSVGMSR

In the data set the parent is B1. Put plainly: abundance fitness (aPCA) (normalised: wild type 0, dead -1); higher = more abundant; growth selection in yeast, the domain comes from the species named. Conditions: Homo sapiens.
For CKVCGDVASGFHYGVHACEGCKGFFRRSIQQNIQYKKCLKNENCSIMRMNRNRCQQCLFKKCLSVGMSR [R58L], the abundance fitness was determined as 0.278 ± 0.06.

For the variant CKVCGDVASGFHYGVHACEGCKGFFRRSIQQNIQYKKCLKNENCSIMRMNRNRCQQCEFKKCLSVGMSR [R58E], the abundance fitness was -0.474 ± 0.33.

In the case of CKVCGDVASGFHYGVHACEGCKGFFRRSIQQNIQYKKCLKNENCSIMRMNRNRCQQCSFKKCLSVGMSR [R58S], the abundance fitness was -0.877 ± 0.24.

Take CKVCGDVASGFHYGVHACEGCKGFFRRSIQQNIQYKKCLKNENCSIMRMNRNRCQQCVFKKCLSVGMSR [R58V]: the abundance fitness is -0.903 ± 0.27.

CKVCGDVASGFHYGVHACEGCKGFFRRSIQQNIQYKKCLKNENCSIMRMNRNRCQQCFFKKCLSVGMSR [R58F]: the abundance fitness was found to be 0.109 ± 0.2.

On to CKVCGDVASGFHYGVHACEGCKGFFRRSIQQNIQYKKCLKNENCSIMRMNRNRCQQCTFKKCLSVGMSR [R58T], for which the abundance fitness is -0.097 ± 0.1.

For CKVCGDVASGFHYGVHACEGCKGFFRRSIQQNIQYKKCLKNENCSIMRMNRNRCQQCIFKKCLSVGMSR [R58I], the abundance fitness was -0.806 ± 0.49.

As for CKVCGDVASGFHYGVHACEGCKGFFRRSIQQNIQYKKCLKNENCSIMRMNRNRCQQCNFKKCLSVGMSR [R58N], the abundance fitness is -0.759 ± 0.17.

Turning to CKVCGDVASGFHYGVHACEGCKGFFRRSIQQNIQYKKCLKNENCSIMRMNRNRCQQCWFKKCLSVGMSR [R58W], the abundance fitness was 0.565 ± 0.11.

Regarding CKVCGDVASGFHYGVHACEGCKGFFRRSIQQNIQYKKCLKNENCSIMRMNRNRCQQCPFKKCLSVGMSR [R58P], the abundance fitness is -0.698 ± 0.18.

For CKVCGDVASGFHYGVHACEGCKGFFRRSIQQNIQYKKCLKNENCSIMRMNRNRCQQCKFKKCLSVGMSR [R58K], the abundance fitness was -0.497 ± 0.22.

As to CKVCGDVASGFHYGVHACEGCKGFFRRSIQQNIQYKKCLKNENCSIMRMNRNRCQQCMFKKCLSVGMSR [R58M], the abundance fitness was determined as 0.036 ± 0.09.

Regarding CKVCGDVASGFHYGVHACEGCKGFFRRSIQQNIQYKKCLKNENCSIMRMNRNRCQQCHFKKCLSVGMSR [R58H], the abundance fitness was 0.466 ± 0.11.

Consider CKVCGDVASGFHYGVHACEGCKGFFRRSIQQNIQYKKCLKNENCSIMRMNRNRCQQCQFKKCLSVGMSR [R58Q], for which the abundance fitness was -0.046 ± 0.11.

CKVCGDVASGFHYGVHACEGCKGFFRRSIQQNIQYKKCLKNENCSIMRMNRNRCQQCYFKKCLSVGMSR [R58Y]: the abundance fitness was -0.055 ± 0.18.

For CKVCGDVASGFHYGVHACEGCKGFFRRSIQQNIQYKKCLKNENCSIMRMNRNRCQQCAFKKCLSVGMSR [R58A], the abundance fitness was -0.272 ± 0.12.

CKVCGDVASGFHYGVHACEGCKGFFRRSIQQNIQYKKCLKNENCSIMRMNRNRCQQCCFKKCLSVGMSR [R58C]: the abundance fitness came to 0.417 ± 0.39.

Take CKVCGDVASGFHYGVHACEGCKGFFRRSIQQNIQYKKCLKNENCSIMRMNRNRCQQQRFKKCLSVGMSR [C57Q]: the abundance fitness is -0.59 ± 0.33.

For the variant CKVCGDVASGFHYGVHACEGCKGFFRRSIQQNIQYKKCLKNENCSIMRMNRNRCQQLRFKKCLSVGMSR [C57L], the abundance fitness was -0.708 ± 0.16.

In the case of CKVCGDVASGFHYGVHACEGCKGFFRRSIQQNIQYKKCLKNENCSIMRMNRNRCQQFRFKKCLSVGMSR [C57F], the abundance fitness is -0.806 ± 0.27.

Regarding CKVCGDVASGFHYGVHACEGCKGFFRRSIQQNIQYKKCLKNENCSIMRMNRNRCQQGRFKKCLSVGMSR [C57G], the abundance fitness was -0.855 ± 0.23.

On to CKVCGDVASGFHYGVHACEGCKGFFRRSIQQNIQYKKCLKNENCSIMRMNRNRCQQVRFKKCLSVGMSR [C57V], for which the abundance fitness was -1.01 ± 0.37.

Take CKVCGDVASGFHYGVHACEGCKGFFRRSIQQNIQYKKCLKNENCSIMRMNRNRCQQIRFKKCLSVGMSR [C57I]: the abundance fitness was -0.44 ± 0.2.

Consider CKVCGDVASGFHYGVHACEGCKGFFRRSIQQNIQYKKCLKNENCSIMRMNRNRCQQMRFKKCLSVGMSR [C57M], for which the abundance fitness is -1 ± 0.46.

As for CKVCGDVASGFHYGVHACEGCKGFFRRSIQQNIQYKKCLKNENCSIMRMNRNRCQQRRFKKCLSVGMSR [C57R], the abundance fitness is -1.21 ± 0.32.

Consider CKVCGDVASGFHYGVHACEGCKGFFRRSIQQNIQYKKCLKNENCSIMRMNRNRCQQKRFKKCLSVGMSR [C57K], for which the abundance fitness was -0.687 ± 0.46.

CKVCGDVASGFHYGVHACEGCKGFFRRSIQQNIQYKKCLKNENCSIMRMNRNRCQQDRFKKCLSVGMSR [C57D]: the abundance fitness is -0.689 ± 0.47.

For CKVCGDVASGFHYGVHACEGCKGFFRRSIQQNIQYKKCLKNENCSIMRMNRNRCQQSRFKKCLSVGMSR [C57S], the abundance fitness is -0.836 ± 0.3.

As for CKVCGDVASGFHYGVHACEGCKGFFRRSIQQNIQYKKCLKNENCSIMRMNRNRCQQARFKKCLSVGMSR [C57A], the abundance fitness is -0.738 ± 0.18.

As to CKVCGDVASGFHYGVHACEGCKGFFRRSIQQNIQYKKCLKNENCSIMRMNRNRCGQCRFKKCLSVGMSR [Q55G], the abundance fitness is 0.088 ± 0.08.

In the case of CKVCGDVASGFHYGVHACEGCKGFFRRSIQQNIQYKKCLKNENCSIMRMNRNRCCQCRFKKCLSVGMSR [Q55C], the abundance fitness was -0.324 ± 0.22.

On to CKVCGDVASGFHYGVHACEGCKGFFRRSIQQNIQYKKCLKNENCSIMRMNRNRCEQCRFKKCLSVGMSR [Q55E], for which the abundance fitness amounted to 0.251 ± 0.1.

CKVCGDVASGFHYGVHACEGCKGFFRRSIQQNIQYKKCLKNENCSIMRMNRNRCIQCRFKKCLSVGMSR [Q55I]: the abundance fitness is -0.611 ± 0.19.

For CKVCGDVASGFHYGVHACEGCKGFFRRSIQQNIQYKKCLKNENCSIMRMNRNRCRQCRFKKCLSVGMSR [Q55R], the abundance fitness is -0.418 ± 0.084.

As for CKVCGDVASGFHYGVHACEGCKGFFRRSIQQNIQYKKCLKNENCSIMRMNRNRCVQCRFKKCLSVGMSR [Q55V], the abundance fitness is -0.425 ± 0.13.

For CKVCGDVASGFHYGVHACEGCKGFFRRSIQQNIQYKKCLKNENCSIMRMNRNRCKQCRFKKCLSVGMSR [Q55K], the abundance fitness was -0.202 ± 0.13.

Regarding CKVCGDVASGFHYGVHACEGCKGFFRRSIQQNIQYKKCLKNENCSIMRMNRNRCPQCRFKKCLSVGMSR [Q55P], the abundance fitness stood at 0.027 ± 0.093.

Regarding CKVCGDVASGFHYGVHACEGCKGFFRRSIQQNIQYKKCLKNENCSIMRMNRNRCMQCRFKKCLSVGMSR [Q55M], the abundance fitness is -0.53 ± 0.16.

Consider CKVCGDVASGFHYGVHACEGCKGFFRRSIQQNIQYKKCLKNENCSIMRMNRNRCLQCRFKKCLSVGMSR [Q55L], for which the abundance fitness is -0.006 ± 0.061.

The values are drawn from the Human Domainome abundance scans (Beltran et al. 2025).
